Data published in patent US20230295310A1 (ABCELLERA BIOLOGICS, published 2023).

Molecular target: human EGFR, C-terminal eGFP-tagged, on CHO-K1 cells (human, UniProt P00533 25-1210)
Experiment: cell-based or functional assay

EC50 CHO-K1 EGFR Low (nM); T cell activation bioassay, luciferase | EC50 CHO-K1 EGFR Med (nM); T cell activation bioassay, luciferase | Binder
0.377 nM | 0.0442 nM | GOMP001_bsAb_018 (bispecific antibody, human IgG1, kappa, L234A L235A) heavy 1: EVQLVESGGDLVQPGRSLRLSCAASGFTFDDCVIHWVRYAPGKGLEWVSGITWNSGRIGYADRVKGRFTISRDNAKNSLYLQMNSLRVEDTALYYCAKEGNYDFWSTYYRGYFDLWGRGTLVTVSSASTKGPSVFPLAPSSKSTSGGTAALGCLVKDYFPEPVTVSWNSGALTSGVHTFPAVLQSSGLYSLSSVVTVPSSSLGTQTYICNVNHKPSNTKVDKKVEPKSCDKTHTCPPCPAPEAAGGPSVFLFPPKPKDTLMISRTPEVTCVVVDVSHEDPEVKFNWYVDGVEVHNAKTKPREEQYNSTYRVVSVLTVLHQDWLNGKEYKCKVSNKALPAPIEKTISKAKGQPRRPRVYTLPPSREEMTKNQVSLVCLVKGFYPSDIAVEWESNGQPENNYKTTPPVLDSDGSFFLYSVLTVDKSRWQQGNVFSCSVMHEALHNHYTQKSLSLSPG light 1: DIQMTQSPSSLSASVGDRVTITCRASQGIRNDLGWYQRKPGDAPKRLIYAASSLQGGVPLRFSGSGSGTEFTLTISSLQPEDFATYYCLQHNSYPYTFGQGTKLEIKRTVAAPSVFIFPPSDEQLKSGTASVVCLLNNFYPREAKVQWKVDNALQSGNSQESVTEQDSKDSTYSLSSTLTLSKADYEKHKVYACEVTHQGLSSPVTKSFNRGEC heavy 2: QVQLVQSGAEVKKPGASVKVSCKASGYTFTSHWMHWVRYAPGQGLEWIGEFNPSNGRTNYNEKFKSKATMTVDTSTNTAYMELSSLRSEDTAVYYCASRDYDYDGRYFDYWGRGTLVTVSSASTKGPSVFPLAPSSKSTSGGTAALGCLVKDYFPEPVTVSWNSGALTSGVHTFPAVLQSSGLYSLSSVVTVPSSSLGTQTYICNVNHKPSNTKVDKKVEPKSCDKTHTCPPCPAPEAAGGPSVFLFPPKPKDTLMISRTPEVTCVVVDVSHEDPEVKFNWYVDGVEVHNAKTKPREEQYNSTYRVVSVLTVLHQDWLNGKEYKCKVSNKALPAPIEKTISKAKGQPRRPRVYTLPPSREEMTKNQVSLVCLVKGFYPSDIAVEWESNGQPENNYKTTPPVLDSDGSFFLYSVLTVDKSRWQQGNVFSCSVMHEALHNHYTQKSLSLSPG light 2: DIQMTQSPSSLSASVGDRVTITCSASSSVTYMYWYQRKPGDAPKLLIYDTSNLASGVPSRFSGSGSGTDYTFTISSLQPEDIATYYCQQWSSHIFTFGQGTKVEIKRTVAAPSVFIFPPSDEQLKSGTASVVCLLNNFYPREAKVQWKVDNALQSGNSQESVTEQDSKDSTYSLSSTLTLSKADYEKHKVYACEVTHQGLSSPVTKSFNRGEC
0.235 nM | 0.0102 nM | GOMP001_bsAb_020 (bispecific antibody, human IgG1, kappa, L234A L235A) heavy 1: EVQLVDSGGGLVQPGGSLRLSCSGSGFTFSSYWMSWVRYAPGKGLEWVANIKQDGSQKYYVDRVKGRFTISRDNVKNSLYLQMNSLRVEDTAVYYCARDESSSWYWYFDLWGRGTLVTVSSASTKGPSVFPLAPSSKSTSGGTAALGCLVKDYFPEPVTVSWNSGALTSGVHTFPAVLQSSGLYSLSSVVTVPSSSLGTQTYICNVNHKPSNTKVDKKVEPKSCDKTHTCPPCPAPEAAGGPSVFLFPPKPKDTLMISRTPEVTCVVVDVSHEDPEVKFNWYVDGVEVHNAKTKPREEQYNSTYRVVSVLTVLHQDWLNGKEYKCKVSNKALPAPIEKTISKAKGQPRRPRVYTLPPSREEMTKNQVSLVCLVKGFYPSDIAVEWESNGQPENNYKTTPPVLDSDGSFFLYSVLTVDKSRWQQGNVFSCSVMHEALHNHYTQKSLSLSPG light 1: DIQMTQSPSTLSASVGDRVTLTCRASQNIVKWLAWYQRKPGDAPKLLIYKASSLESGVPSWFSGSGSGTEFTLTINSLQPDDFATYYCQQYYTYSRTFGQGTKVEIKRTVAAPSVFIFPPSDEQLKSGTASVVCLLNNFYPREAKVQWKVDNALQSGNSQESVTEQDSKDSTYSLSSTLTLSKADYEKHKVYACEVTHQGLSSPVTKSFNRGEC heavy 2: QVQLVQSGAEVKKPGASVKVSCKASGYTFTSHWMHWVRYAPGQGLEWIGEFNPSNGRTNYNEKFKSKATMTVDTSTNTAYMELSSLRSEDTAVYYCASRDYDYDGRYFDYWGRGTLVTVSSASTKGPSVFPLAPSSKSTSGGTAALGCLVKDYFPEPVTVSWNSGALTSGVHTFPAVLQSSGLYSLSSVVTVPSSSLGTQTYICNVNHKPSNTKVDKKVEPKSCDKTHTCPPCPAPEAAGGPSVFLFPPKPKDTLMISRTPEVTCVVVDVSHEDPEVKFNWYVDGVEVHNAKTKPREEQYNSTYRVVSVLTVLHQDWLNGKEYKCKVSNKALPAPIEKTISKAKGQPRRPRVYTLPPSREEMTKNQVSLVCLVKGFYPSDIAVEWESNGQPENNYKTTPPVLDSDGSFFLYSVLTVDKSRWQQGNVFSCSVMHEALHNHYTQKSLSLSPG light 2: DIQMTQSPSSLSASVGDRVTITCSASSSVTYMYWYQRKPGDAPKLLIYDTSNLASGVPSRFSGSGSGTDYTFTISSLQPEDIATYYCQQWSSHIFTFGQGTKVEIKRTVAAPSVFIFPPSDEQLKSGTASVVCLLNNFYPREAKVQWKVDNALQSGNSQESVTEQDSKDSTYSLSSTLTLSKADYEKHKVYACEVTHQGLSSPVTKSFNRGEC
8.34 nM | 1.71 nM | GOMP001_bsAb_023 (bispecific antibody, human IgG1, kappa, L234A L235A) heavy 1: QVQLVQSGAEVKKPGASVKVSCKASGYTFTSHWMHWVRKAPGQGLEWIGEFNPSNGRTNYNEEFKSKATMTVDTSTNTAYMELSSLRSEDTAVYYCASRDYDYDGRYFDYWGQGTLVTVSSASTKGPSVFPLAPSSKSTSGGTAALGCLVADYFPEPVTVSWNSGALTSGVHTFPAVLQSSGLYSLSSVVTVPSSSLGTQTYICNVNHKPSNTKVDEKVEPKSCDKTHTCPPCPAPEAAGGPSVFLFPPKPKDTLMISRTPEVTCVVVDVSHEDPEVKFNWYVDGVEVHNAKTKPREEQYNSTYRVVSVLTVLHQDWLNGKEYKCKVSNKALPAPIEKTISKAKGQPREPQVYTLPPSREEMTDNQVSLTCLVKGFYPSDIAVEWESNGQPENNYKTTPPVLMSDGSFFLASKLTVDKSRWQQGNVFSCSVMHEALHNHYTQKSLSLSPG light 1: RIQMTQSPSSLSASVGDRVTITCSASSSVTYMYWYQDKPGKAPKLLIYDTSNLASGVPSRFSGSGSGTDYTFTISSLQPEDIATYYCQQWSSHIFTFGQGTKVEIKRTVAAPSVFIFPPSDKQLKSGTARVVCLLNNFYPREAKVQWKVDNALQSGNSQESVTEQDSKDSTYSLSSTLTLSKADYEKHKVYACEVTHQGLSSPVTKSFNRGEC heavy 2: QGQLVESGGGVVQPGRSLRLSCEASGFTFRSYGMHWVRYPPGKGLEWVAIIWYDGGKKYYGDRVKGRFTISRDNPKNTLYLQMNSLRPEDTAVYYCMAYDYSNGFDIWGRGTMVTVSSASTKGPSVFPLAPSSKSTSGGTAALGCLVKDYFPEPVTVSWNSGALTSGVHTFPAVLQSSGLYSLSSVVTVPSSSLGTQTYICNVNHKPSNTKVDKKVEPKSCDKTHTCPPCPAPEAAGGPSVFLFPPKPKDTLMISRTPEVTCVVVDVSHEDPEVKFNWYVDGVEVHNAKTKPREEQYNSTYRVVSVLTVLHQDWLNGKEYKCKVSNKALPAPIEKTISKAKGQPRRPRVYTLPPSREEMTKNQVSLVCLVKGFYPSDIAVEWESNGQPENNYKTTPPVLDSDGSFFLYSVLTVDKSRWQQGNVFSCSVMHEALHNHYTQKSLSLSPG light 2: DIVMTQTPLSSPVTLGQPASISCRSSQSFVHSDGSTYLSWLQRRPGDPPRLLIYKISNRFSGVPDRFSGRGAGTDFTLKISRVEAEDVGIYYCMQNTQFPYTFGQGTKLEIKRTVAAPSVFIFPPSDEQLKSGTASVVCLLNNFYPREAKVQWKVDNALQSGNSQESVTEQDSKDSTYSLSSTLTLSKADYEKHKVYACEVTHQGLSSPVTKSFNRGEC
4.27 nM | 0.257 nM | GOMP001_bsAb_019 (bispecific antibody, human IgG1, kappa, L234A L235A) heavy 1: QVQLVQSGAEVKKPGASVKVSCKASGYTFTSHWMHWVRKAPGQGLEWIGEFNPSNGRTNYNEEFKSKATMTVDTSTNTAYMELSSLRSEDTAVYYCASRDYDYDGRYFDYWGQGTLVTVSSASTKGPSVFPLAPSSKSTSGGTAALGCLVADYFPEPVTVSWNSGALTSGVHTFPAVLQSSGLYSLSSVVTVPSSSLGTQTYICNVNHKPSNTKVDEKVEPKSCDKTHTCPPCPAPEAAGGPSVFLFPPKPKDTLMISRTPEVTCVVVDVSHEDPEVKFNWYVDGVEVHNAKTKPREEQYNSTYRVVSVLTVLHQDWLNGKEYKCKVSNKALPAPIEKTISKAKGQPREPQVYTLPPSREEMTDNQVSLTCLVKGFYPSDIAVEWESNGQPENNYKTTPPVLMSDGSFFLASKLTVDKSRWQQGNVFSCSVMHEALHNHYTQKSLSLSPG light 1: RIQMTQSPSSLSASVGDRVTITCSASSSVTYMYWYQDKPGKAPKLLIYDTSNLASGVPSRFSGSGSGTDYTFTISSLQPEDIATYYCQQWSSHIFTFGQGTKVEIKRTVAAPSVFIFPPSDKQLKSGTARVVCLLNNFYPREAKVQWKVDNALQSGNSQESVTEQDSKDSTYSLSSTLTLSKADYEKHKVYACEVTHQGLSSPVTKSFNRGEC heavy 2: EVQLVDSGGGLVQPGGSLRLSCSGSGFTFSSYWMSWVRYAPGKGLEWVANIKQDGSQKYYVDRVKGRFTISRDNVKNSLYLQMNSLRVEDTAVYYCARDESSSWYWYFDLWGRGTLVTVSSASTKGPSVFPLAPSSKSTSGGTAALGCLVKDYFPEPVTVSWNSGALTSGVHTFPAVLQSSGLYSLSSVVTVPSSSLGTQTYICNVNHKPSNTKVDKKVEPKSCDKTHTCPPCPAPEAAGGPSVFLFPPKPKDTLMISRTPEVTCVVVDVSHEDPEVKFNWYVDGVEVHNAKTKPREEQYNSTYRVVSVLTVLHQDWLNGKEYKCKVSNKALPAPIEKTISKAKGQPRRPRVYTLPPSREEMTKNQVSLVCLVKGFYPSDIAVEWESNGQPENNYKTTPPVLDSDGSFFLYSVLTVDKSRWQQGNVFSCSVMHEALHNHYTQKSLSLSPG light 2: DIQMTQSPSTLSASVGDRVTLTCRASQNIVKWLAWYQRKPGDAPKLLIYKASSLESGVPSWFSGSGSGTEFTLTINSLQPDDFATYYCQQYYTYSRTFGQGTKVEIKRTVAAPSVFIFPPSDEQLKSGTASVVCLLNNFYPREAKVQWKVDNALQSGNSQESVTEQDSKDSTYSLSSTLTLSKADYEKHKVYACEVTHQGLSSPVTKSFNRGEC
